Results taken from IntAct's records for PubMed 23481255.

B1: ADP-ribose glycohydrolase OARD1 (Homo sapiens), Q9Y530 (parent)
chain: MASSLNEDPEGSRITYVKGDLFACPKTDSLAHCISEDCRMGAGIAVLFKKKFGGVQELLNQQKKSGEVAVLKRDGRYIYYLITKKRASHKPTYENLQKSLEAMKSHCLKNGVTDLSMPRIGCGLDRLQWENVSAMIEEVFEATDIKITVYTL
partner: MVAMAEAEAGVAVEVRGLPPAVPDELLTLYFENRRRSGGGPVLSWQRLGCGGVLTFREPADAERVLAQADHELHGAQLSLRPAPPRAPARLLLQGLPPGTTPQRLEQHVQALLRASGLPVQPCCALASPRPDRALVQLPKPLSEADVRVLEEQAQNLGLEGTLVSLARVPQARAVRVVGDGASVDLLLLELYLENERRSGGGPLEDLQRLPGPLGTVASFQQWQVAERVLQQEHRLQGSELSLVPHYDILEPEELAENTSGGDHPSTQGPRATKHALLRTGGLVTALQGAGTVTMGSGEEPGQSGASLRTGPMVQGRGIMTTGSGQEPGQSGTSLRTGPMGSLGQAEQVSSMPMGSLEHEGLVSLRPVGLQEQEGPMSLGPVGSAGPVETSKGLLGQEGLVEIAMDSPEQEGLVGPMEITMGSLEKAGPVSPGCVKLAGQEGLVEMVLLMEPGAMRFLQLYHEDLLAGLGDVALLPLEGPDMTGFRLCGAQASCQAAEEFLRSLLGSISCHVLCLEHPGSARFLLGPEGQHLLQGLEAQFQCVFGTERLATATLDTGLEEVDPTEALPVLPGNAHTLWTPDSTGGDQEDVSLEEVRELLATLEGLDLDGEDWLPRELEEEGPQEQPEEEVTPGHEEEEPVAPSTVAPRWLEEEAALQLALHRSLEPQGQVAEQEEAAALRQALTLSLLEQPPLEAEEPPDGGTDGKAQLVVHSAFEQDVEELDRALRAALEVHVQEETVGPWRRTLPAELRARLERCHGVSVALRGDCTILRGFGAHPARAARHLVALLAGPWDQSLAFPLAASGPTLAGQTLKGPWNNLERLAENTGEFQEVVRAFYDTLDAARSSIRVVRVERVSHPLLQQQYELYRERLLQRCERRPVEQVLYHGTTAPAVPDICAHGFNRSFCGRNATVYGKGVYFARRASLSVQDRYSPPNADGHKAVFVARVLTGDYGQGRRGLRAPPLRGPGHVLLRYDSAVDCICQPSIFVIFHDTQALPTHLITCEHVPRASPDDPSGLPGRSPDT
B2: ADP-ribose glycohydrolase OARD1 (Homo sapiens), Q9Y530 (parent)
chain: B1 chain

Variants of: B1
Settings: with par10_human PARP10, Q53GL7

effect of a mutation on the interaction	Variant
disrupting interaction	K84A

Variants of: B1
Settings: with par10_human PARP10, Q53GL7
Remark: another data set of the same source

effect of a mutation on the interaction	Variant
disrupting interaction	D125A

Variants of: B2
Settings: with parp1_human PARP1, P09874
Sequence of parp1_human PARP1, P09874 (P09874 whole entry): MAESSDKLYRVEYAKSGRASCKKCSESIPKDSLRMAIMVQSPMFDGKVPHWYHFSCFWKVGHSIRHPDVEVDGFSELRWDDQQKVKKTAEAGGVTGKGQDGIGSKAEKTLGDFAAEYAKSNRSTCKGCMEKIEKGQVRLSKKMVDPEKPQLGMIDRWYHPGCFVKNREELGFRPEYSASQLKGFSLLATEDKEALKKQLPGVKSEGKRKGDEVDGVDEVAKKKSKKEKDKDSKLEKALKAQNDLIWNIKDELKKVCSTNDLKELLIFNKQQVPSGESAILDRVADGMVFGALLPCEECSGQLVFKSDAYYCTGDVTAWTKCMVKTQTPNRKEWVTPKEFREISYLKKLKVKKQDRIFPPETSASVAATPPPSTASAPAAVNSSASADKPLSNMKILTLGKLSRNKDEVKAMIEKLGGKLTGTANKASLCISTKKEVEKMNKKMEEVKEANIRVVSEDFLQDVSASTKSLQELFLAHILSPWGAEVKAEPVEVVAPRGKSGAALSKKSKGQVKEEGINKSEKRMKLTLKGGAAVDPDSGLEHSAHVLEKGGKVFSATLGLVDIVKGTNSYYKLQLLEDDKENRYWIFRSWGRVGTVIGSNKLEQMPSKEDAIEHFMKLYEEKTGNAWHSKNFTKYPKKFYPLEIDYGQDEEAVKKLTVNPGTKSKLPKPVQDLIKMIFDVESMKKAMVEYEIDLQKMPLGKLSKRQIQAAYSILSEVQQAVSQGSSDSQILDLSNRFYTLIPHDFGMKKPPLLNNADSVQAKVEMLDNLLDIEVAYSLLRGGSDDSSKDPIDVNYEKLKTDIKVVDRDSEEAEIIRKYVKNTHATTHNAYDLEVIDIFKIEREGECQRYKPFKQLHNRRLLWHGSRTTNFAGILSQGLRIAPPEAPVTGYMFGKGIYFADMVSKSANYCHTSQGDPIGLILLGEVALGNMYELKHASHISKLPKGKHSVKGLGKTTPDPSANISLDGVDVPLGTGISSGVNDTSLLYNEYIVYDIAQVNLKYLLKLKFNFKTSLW

effect of a mutation on the interaction	Variant
disrupting interaction	G123E

Variants of: B2
Settings: with parp1_human PARP1, P09874
Remark: another data set of the same source

effect of a mutation on the interaction	Variant
disrupting interaction	D125A

Variants of: B2
Settings: with parp1_human PARP1, P09874
Remark: another data set of the same source

effect of a mutation on the interaction	Variant
increasing interaction	D125A

Variants of: B2
Settings: with parp1_human PARP1, P09874
Remark: another data set of the same source

effect of a mutation on the interaction	Variant
disrupting interaction	K84A

Variants of: B2
Settings: with parp1_human PARP1, P09874
Remark: another data set of the same source

effect of a mutation on the interaction	Variant
disrupting interaction	K84R
